Patent US20140325692, “BLUE-LIGHT INDUCIBLE SYSTEM FOR GENE EXPRESSION” (BOARD OF REGENTS, THE UNIVERSITY OF TEXAS SYSTEM, published 2014)

T1: EL222 (14-222) wild type (Erythrobacter litoralis, UniProt Q2NB98 SEQ:1-209)
T1 chain: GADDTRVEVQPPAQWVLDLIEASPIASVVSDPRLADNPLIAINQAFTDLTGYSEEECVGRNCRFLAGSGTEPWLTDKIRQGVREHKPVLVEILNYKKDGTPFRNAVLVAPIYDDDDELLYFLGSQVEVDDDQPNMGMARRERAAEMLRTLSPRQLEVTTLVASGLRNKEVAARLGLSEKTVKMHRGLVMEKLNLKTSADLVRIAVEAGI

B1: C1-2 (dsDNA)
DNA 1: TAGGTAGCCTTTAGTCCATG
DNA 2: CATGGACTAAAGGCTACCTA
B2: Clone-22 (dsDNA)
DNA 1: TATAGGGCTTTAGTCTGTATGTGGGATGTGTGT
DNA 2: ACACACATCCCACATACAGACTAAAGCCCTATA
B3: Clone-1 (dsDNA)
DNA 1: TCTACGTTATAGGTAGCCTTTAGTCCATGCTGATTCGTTTTCAAC
DNA 2: GTTGAAAACGAATCAGCATGGACTAAAGGCTACCTATAACGTAGA
B4: Clone-78 (dsDNA)
DNA 1: GCCCTAAGACTGTATCTTATTCGTGAGTTTTAA
DNA 2: TTAAAACTCACGAATAAGATACAGTCTTAGGGC
B5: Clone-53 (dsDNA)
DNA 1: CATGGCCTAAGGACTGTAAGTACTATTAAATAC
DNA 2: GTATTTAATAGTACTTACAGTCCTTAGGCCATG
B6: Clone-3 (dsDNA)
DNA 1: TAGACTTAAGTCTAGTACACAAGTTTTCCAGGG
DNA 2: CCCTGGAAAACTTGTGTACTAGACTTAAGTCTA
B7: Clone-77 (dsDNA)
DNA 1: CAGATACATGCTTTAGTACGTATATTCGATGTC
DNA 2: GACATCGAATATACGTACTAAAGCATGTATCTG
B8: Clone-2 (dsDNA)
DNA 1: AGCTAGGCTTTTGGTCTGTATAGCTGTCTTATA
DNA 2: TATAAGACAGCTATACAGACCAAAAGCCTAGCT

What was measured:
Conditions in all cases: tags: His6-Gβ1 (pHis6-Gβ1-Parallel1); label: 5'-32P
[1] = molecular target: T1, EL222 (14-222) wild type; assay: EMSA; light, 4 C, 3 mM MgCl2
Procedure: (§1) DNA pools derived from each SELEX cycle were PCR amplified as described previously in the SELEX procedure. Complementary oligonucleotides for each individual SELEX-derived clone sequence were chemically synthesized (Sigma), heated to 95-100° C. for 5 min and left to cool to room temperature to anneal the oligonucleotides. DNAs were 5′-end labeled in a 50 μl reaction containing (final concentrations) 68 nM DNA substrate, 70 mM Tris-Cl pH 7.6, 10 mM MgCl₂, 5 mM DTT, 0.6 μCi ATP [γ-³²P] (Perkin Elmer, cat. no. BLU502Z500UC), and 0.2 U PNK (New England Biolabs Inc.). The reaction was incubated for 30 min at 37° C., followed by a 20 min incubation at 65° C. to heat inactivate the enzyme. The ³²P-labeled DNA was purified from the unincorporated ATP [γ-³²P] using Illustra ProbeQuant G-50 micro-columns (GE Healthcare). Approximately 13.6 nM radiolabeled DNA was incubated with varying concentrations of WT-EL222 in the same binding buffer used for SELEX procedure for 25 min at 4° C. with continuous illumination with a white LED light. Reactions were analyzed on a 5% native gel (Acrylamide/Bis 29:1) and run in TBE buffer at 150 V for 1.5 hr at 4° C. The gel was exposed to a PhosphorImaging plate and visualized using FujiFilm FLA-5100 imaging system.

[2] = molecular target: T1, EL222 (14-222) wild type; assay: EMSA; light, 4 C, 3 mM MgCl2; 33 bp randomized region printed
Procedure: as §1

[3] = molecular target: T1, EL222 (14-222) wild type; assay: EMSA; white LED light, 4 C, 10 mM Tris pH 8.0, 80 mM NaCl, 3 mM MgCl2
Procedure: as §1

| Binder | binding result [2] | further results |
| --- | --- | --- |
| B1 | – | binding result [1]: binds |
| B2 | binds | – |
| B3 | – | binding result [3]: binds |
| B4 | binds | – |
| B5 | binds | – |
| B6 | binds | – |
| B7 | binds | – |
| B8 | binds | – |
